Results from patent US5558864A, “Humanized and chimeric anti-epidermal growth factor receptor monoclonal antibodies” (Merck Patent Gesellschaft Mit Beschrankter Haftung, dated 1996).
“Also recorded” adds a separate entry of the source.

Key:
[1] = system: EGFR solubilized from A431 membranes; test: Competitive binding of purified antibodies against biotin-labelled MAb 425 (Example 11); design: species or system human; settings: competition with biotin-labelled MAb 425, inhibition curves FIG. 10
Description: Biotin-labelled MAb 425 was Used to compete with unlabelled MAb 425 or derivates for binding to EGFR. Biotin-labelling occurred according to standard methods. EGFR was solubilized from A431 membranes by standard methods. A431 cells were commercially purchased. Detection was done after incubation with POD-conjugated streptavidin and substrate.

[2] = system: EGF-receptor positive membranes (A431); test: Competition of 125I-labelled EGF and antibodies for EGF-receptor, SPA (Example 12); type: binding, human; settings: purified antibodies, 125I-EGF, FIG. 11
Description: Different probes of purified murine, chimeric and reshaped MAbs 425 were tested for their potency to compete with EGF regarding their binding to EGFR. The test was performed by competing ^125 I-labelled EGF (Amersham Corp., GB) and various antibodies for binding to EGF-receptor positive membranes (A431). The test system is based on SPA technology (Amersham).

[3] = system: epidermoid and colorectal carcinoma-derived cell lines; settings: in vitro; cited from earlier work
[4] = system: human epidermal growth factor receptor (EGFR); settings: cited from earlier work
[5] = system: EGFR protein; test: Competition binding assay with biotinylated murine MAb 425 (cell supernatants); design: species or system human; settings: unpurified COS cell supernatants; relative levels of binding, not accurate affinity
Description: Murine MAb 425 was biotinylated using a correspondingly purchasable kit. ELISA plates were coated with an optimal dilution of the EGFR protein. Dilutions of the COS cell supernatants, in a volume of 50 μl, were mixed with 50 μl of the biotinylated murine MAb 425 (estimated by ELISA to be 1.75 μg/ml). Each COS cell supernatant was tested in duplicate. Plates were incubated at room temperature, overnight. Bound biotinylated murine MAb 425 was detected by the addition of a purchasable streptavidin horseradish peroxidase complex. A control with no competitor present allowed a value of percentage of inhibition or blocking to be calculated for each COS cell supernatant as follows: […]

[6] = system: EGFR protein; test: ELISA for antigen binding to EGFR; settings: transfected cell supernatants, detection with anti-human IgG; VH versions co-transfected with RVL a425, ranked: highest > followed by > then followed by > low > never detectable
Description: Human IgG present in COS cell supernatants was detected by ELISA: In the ELISA assay for human IgG, 96-well plates were coated with goat anti-human IgG (whole molecule) and human IgG in the samples that bound to the plates was detected using alkaline phosphatase-conjugated goat anti-human IgG (gamma-chain specific). Purchasable purified human IgG was used as a standard. Binding to the antigen recognized by MAb 425 was determined in a second ELISA. Plates were coated with an EGFR protein preparation (obtainable, for example, according to Rodeck et al., 1980) and antibodies binding to EGFR were detected using either an anti-human IgG (gamma-chain specific) peroxidase conjugate (for chimeric and reshaped human antibodies) or an anti-mouse IgG (whole molecule) peroxidase conjugate (for the mouse MAb 425 antibody) (both conjugates supplied by Sigma). Purified murine MAb 425 was used as a standard.

[7] = target: T1, EGFR protein preparation (epidermal growth factor receptor) (human, UniProt P00533); test: competition ELISA on EGFR-coated plates, competitor biotinylated murine MAb 425 (FIG. 7, Panel B)
[8] = target: T1, EGFR protein preparation (epidermal …); test: antigen-binding ELISA on EGFR protein, cell supernatants
[9] = target: T1, EGFR protein preparation (epidermal …); test: antigen-binding ELISA on EGFR protein, COS supernatants, with RVL a425 (FIG. 6)
[10] = target: T1, EGFR protein preparation (epidermal …); test: antigen-binding ELISA on EGFR protein, COS supernatants (FIG. 6)
[11] = target: T1, EGFR protein preparation (epidermal …); test: antigen-binding ELISA on EGFR protein, supernatant of co-transfected cells
[12] = target: T1, EGFR protein preparation (epidermal …); test: antigen-binding ELISA on EGFR protein, cell supernatants (FIG. 8, Panel A)

MAb 425: murine monoclonal antibody raised against human A431 carcinoma cells, binds EGFR; hybridoma ATCC HB 9629 [reference compound]
binding potency (avidity) to EGFR [1]: similar | potency to compete with EGF for binding to EGFR [2]: the same; also recorded: nearly identical | tumor cell growth [3]: suppress tumor cell growth | binding to EGFR epitope [4]: bind to a polypeptide epitope on the external domain of the human epidermal growth factor receptor (EGFR) | inhibition of EGF binding to EGFR ([4]; low and high affinity EGFR sites): inhibit the binding of epidermal growth factor (EGF) at both low and high affinity EGFR sites

Chimeric 425 antibody: mouse 425 VL and VH regions with human kappa and gamma-1 constant regions
binding potency (avidity) to EGFR [1]: similar | competition with labelled mouse 425 antibody for binding to antigen (percent inhibition of binding, relative avidity) [5]: just slightly less than that obtained when unlabelled mouse 425 antibody is competed with labelled mouse 425 antibody | potency to compete with EGF for binding to EGFR [2]: the same | binding to EGFR in antigen-binding ELISA [6]: binds well to EGFR protein

B1: reshaped human 425 antibody with RVL a425 and RVH i425 (antibody, V domains shown)
VH: QVQLVQSGAEVKKPGASVKVSCKASGYTFTSHWMHWVRQAPGQGLEWVGEFNPSNGRTNYNEKFKSKATMTVDTSTNTAYMELSSLRSEDTAVYYCASRDYDYDGRYFDYWGQGTLVTVSS
VL: DIQMTQSPSSLSASVGDRVTITCSASSSVTYMYWYQQKPGKAPKLLIYDTSNLASGVPSRFSGSGSGTDFTFTISSLQPEDIATYYCQQWSSHIFTFGQGTKVEIK
binding result [7]: binds

B2: reshaped human 425 antibody with RVL b425 and RVH b425 (antibody, V domains shown)
VH: QVQLVQSGAEVKKPGASVKVSCKASGYTFSSHWMHWVRQAPGQGLEWVGEFNPSNGRTNYNEKFKSRVTMTVDTSTNTAYMELSSLRSEDTAVYYCASRDYDYDGRYFDYWGQGTLVTVSS
VL: DIQMTQSPSSLSASVGDRVTITCSASSSVTYMYWYQQKPGKAPKLLIYDTSNLASGVPSRFSGSGSGTDYTFTISSLQPEDIATYYCQQWSSHIFTFGQGTKVEIK
binding result [8]: binds

B3: reshaped human 425 antibody with RVL a425 and RVH b425 (antibody, V domains shown)
VH: QVQLVQSGAEVKKPGASVKVSCKASGYTFSSHWMHWVRQAPGQGLEWVGEFNPSNGRTNYNEKFKSRVTMTVDTSTNTAYMELSSLRSEDTAVYYCASRDYDYDGRYFDYWGQGTLVTVSS
VL: DIQMTQSPSSLSASVGDRVTITCSASSSVTYMYWYQQKPGKAPKLLIYDTSNLASGVPSRFSGSGSGTDFTFTISSLQPEDIATYYCQQWSSHIFTFGQGTKVEIK
binding result [9]: binds

B4: reshaped human 425 antibody with RVL a425 and RVH d425 (antibody, V domains shown)
VH: QVQLVQSGAEVKKPGASVKVSCKASGYTFSSHWMHWVRQAPGQGLEWIGEFNPSNGRTNYNEKFKSRVTMTLDTSTNTAYMELSSLRSEDTAVYYCASRDYDYDGRYFDYWGQGTLVTVSS
VL: DIQMTQSPSSLSASVGDRVTITCSASSSVTYMYWYQQKPGKAPKLLIYDTSNLASGVPSRFSGSGSGTDFTFTISSLQPEDIATYYCQQWSSHIFTFGQGTKVEIK
binding result [10]: no binding

B5: reshaped human 425 antibody with RVL a425 and RVH c425 (antibody, V domains shown)
VH: QVQLVQSGAEVKKPGASVKVSCKASGYTFSSHWMHWVRQAPGQGLEWVGEFNPSNGRTNYNEKFKSKATMTVDTSTNTAYMELSSLRSEDTAVYYCASRDYDYDGRYFDYWGQGTLVTVSS
VL: DIQMTQSPSSLSASVGDRVTITCSASSSVTYMYWYQQKPGKAPKLLIYDTSNLASGVPSRFSGSGSGTDFTFTISSLQPEDIATYYCQQWSSHIFTFGQGTKVEIK
binding result [9]: binds

B6: reshaped human 425 antibody with RVL a425 and RVH a425 (antibody, V domains shown)
VH: QVQLVQSGAEVKKPGASVKVSCKASGYTFSSHWMHWVRQAPGQGLEWVGEFNPSNGRTNYNEKFKSRVTMTLDTSTNTAYMELSSLRSEDTAVYYCASRDYDYDGRYFDYWGQGTLVTVSS
VL: DIQMTQSPSSLSASVGDRVTITCSASSSVTYMYWYQQKPGKAPKLLIYDTSNLASGVPSRFSGSGSGTDFTFTISSLQPEDIATYYCQQWSSHIFTFGQGTKVEIK
binding result [11]: no binding

B7: antibody with chimeric 425 light chain and reshaped human 425 heavy chain version a (antibody, V domains shown)
VH: QVQLVQSGAEVKKPGASVKVSCKASGYTFSSHWMHWVRQAPGQGLEWVGEFNPSNGRTNYNEKFKSRVTMTLDTSTNTAYMELSSLRSEDTAVYYCASRDYDYDGRYFDYWGQGTLVTVSS
VL: QIVLTQSPAIMSASPGEKVTMTCSASSSVTYMYWYQQKPGSSPRLLIYDTSNLASGVPVRFSGSGSGTSYSLTISRMEAEDAATYYCQQWSSHIFTFGSGTKLEIK
binding result [11]: no binding

B8: reshaped human 425 antibody with RVL b425 and RVH c425 (antibody, V domains shown)
VH: QVQLVQSGAEVKKPGASVKVSCKASGYTFSSHWMHWVRQAPGQGLEWVGEFNPSNGRTNYNEKFKSKATMTVDTSTNTAYMELSSLRSEDTAVYYCASRDYDYDGRYFDYWGQGTLVTVSS
VL: DIQMTQSPSSLSASVGDRVTITCSASSSVTYMYWYQQKPGKAPKLLIYDTSNLASGVPSRFSGSGSGTDYTFTISSLQPEDIATYYCQQWSSHIFTFGQGTKVEIK
binding result [12]: binds

B9: reshaped human 425 antibody with RVL a425 and RVH h425 (antibody, V domains shown)
VH: QVQLVQSGAEVKKPGASVKVSCKASGYTFTSHWMHWVRQAPGQGLEWVGEFNPSNGRTNYNEKFKSRVTMTVDTSTNTAYMELSSLRSEDTAVYYCASRDYDYDGRYFDYWGQGTLVTVSS
VL: DIQMTQSPSSLSASVGDRVTITCSASSSVTYMYWYQQKPGKAPKLLIYDTSNLASGVPSRFSGSGSGTDFTFTISSLQPEDIATYYCQQWSSHIFTFGQGTKVEIK
binding result [9]: binds

B10: antibody with reshaped human 425 light chain version a and chimeric 425 heavy chain (antibody, V domains shown)
VH: QVQLQQPGAELVKPGASVKLSCKASGYTFTSHWMHWVKQRAGQGLEWIGEFNPSNGRTNYNEKFKSKATLTVDKSSSTAYMQLSSLTSEDSAVYYCASRDYDYDGRYFDYWGQGTTLTVSS
VL: DIQMTQSPSSLSASVGDRVTITCSASSSVTYMYWYQQKPGKAPKLLIYDTSNLASGVPSRFSGSGSGTDFTFTISSLQPEDIATYYCQQWSSHIFTFGQGTKVEIK
binding result [11]: binds

B11: reshaped human 425 antibody with RVL a425 and RVH f425 (antibody, V domains shown)
VH: QVQLVQSGAEVKKPGASVKVSCKASGYTFSSHWMHWVRQAPGQGLEWIGEFNPSNGRTNYNEKFKSKATMTVDTSTNTAYMELSSLRSEDTAVYYCASRDYDYDGRYFDYWGQGTLVTVSS
VL: DIQMTQSPSSLSASVGDRVTITCSASSSVTYMYWYQQKPGKAPKLLIYDTSNLASGVPSRFSGSGSGTDFTFTISSLQPEDIATYYCQQWSSHIFTFGQGTKVEIK
binding result [9]: binds
